Measurements published in patent publication US20220298237A1 (KEIO UNIVERSITY, published 2022).
Several values for one entry are separate records, joined by “and”; a condition that tells them apart may be missing. Equal values may be shown once. One block for each binder: values may come before it.

Columns and labels:
[1] = biological target: T1, oligopeptide ATYPSGHLDM (SEQ ID NO: 1) (human and mouse); assay: ELISA on peptide SEQ ID NO:1, IgG, 50% binding response (FIG. 16A)
T1 construct: Synthetic peptide; positions 148 to 157 of the human AQP3 polypeptide, identical in mouse; also called peptide used for immunization; oligopeptide 5
T1 peptide: ATYPSGHLDM

[2] = biological target: T2, human aquaporin 3 (AQP3) on cells (human, UniProt Q92482 1-292); assay: fluorescence binding assay on HaCaT cells, 10 µg/mL (FIG. 5C)
T2 construct: whole, on cells; Water channel membrane protein; also called human AQP3; AQP3 on HaCaT cells
T2 sequence (looked up): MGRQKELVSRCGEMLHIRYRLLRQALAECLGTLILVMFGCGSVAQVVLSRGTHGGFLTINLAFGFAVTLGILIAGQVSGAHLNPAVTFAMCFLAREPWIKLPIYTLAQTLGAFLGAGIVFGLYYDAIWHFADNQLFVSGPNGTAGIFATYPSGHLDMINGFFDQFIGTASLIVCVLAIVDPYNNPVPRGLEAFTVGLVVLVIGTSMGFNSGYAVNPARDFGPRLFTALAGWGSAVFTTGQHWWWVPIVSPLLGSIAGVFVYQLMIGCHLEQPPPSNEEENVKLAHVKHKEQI

[3] = biological target: T3, mouse aquaporin 3 (AQP3) on cells (mouse, UniProt Q8R2N1 1-292); assay: fluorescence binding assay on mouse macrophage cells, 0.1, 1 and 10 µg/mL (FIG. 4)
T3 construct: whole, on cells; Water channel membrane protein; also called mouse AQP3; AQP3 on PAM212 cells
T3 sequence (looked up): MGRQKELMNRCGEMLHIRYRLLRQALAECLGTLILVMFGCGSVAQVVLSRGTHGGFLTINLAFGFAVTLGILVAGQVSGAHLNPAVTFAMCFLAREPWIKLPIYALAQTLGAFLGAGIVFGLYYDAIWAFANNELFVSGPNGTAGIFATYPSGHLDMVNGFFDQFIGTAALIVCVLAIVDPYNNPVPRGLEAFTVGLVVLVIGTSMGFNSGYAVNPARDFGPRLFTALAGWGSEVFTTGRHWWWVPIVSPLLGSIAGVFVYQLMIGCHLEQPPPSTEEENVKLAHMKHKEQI
Method: (§1) PAM212 and macrophage cells were reacted with each anti AQP3 antibody (0.1, 1, or 10 μg/mL) at 4° C. for 1 hour. After washing the cells, a fluorescent-labeled secondary antibody was added and the reaction was allowed to occur additionally for 1 hour (4° C.). By measuring the fluorescence intensity, the binding property of each anti AQP3 antibody to cells was obtained.
The testing was also carried out using solvent (Veh) or a non-specific IgG (IgG) controls. In FIG. 4, the vertical axis represents fluorescence intensity, and the mean fluorescence intensity of each sample is represented by bar height together with standard error.

[4] = biological target: T4, mouse AQP3 in lysate of HEK293T cells overexpressing mouse AQP3 and a myc-biotinylated tag (mouse, UniProt Q8R2N1 1-292); assay: ELISA on lysate of HEK293T cells overexpressing mouse AQP3 (FIG. 3)
T4 construct: Cell lysate used in ELISA; also called AQP3 containing cell lysate; not shown: myc-biotinylated tag
T4 sequence (looked up): T3 sequence (looked up)
Text: Cell lysate from HEK293T cells overexpressing mouse AQP3 and a myc-biotinylated tag was used in an ELISA assay to measure the binding of antibodies A, B, C, D, E, F, G, H, J, and K to AQP3. Cell lysate from HEK293T cells overexpressing the myc-biotinylated tag but not AQP3 was used as control. […] C. Antibody binding to AQP3 expressing cells

[5] = biological target: T5, oligopeptide ATYPSGHLD (SEQ ID NO: 101); assay: ELISA on coated peptide
T5 construct: Synthetic peptide, part of Loop C of AQP3
T5 peptide: ATYPSGHLD
Method: (§2) To determine the important amino acid residues of an epitope in Loop C involved in binding to specific AQP3 antibody clones, peptides of varying lengths were produced. The sequences of these peptides are shown in column 2 of Table 4.
(§3) The various peptides and AQP3 antibody clones were subjected to ELISA binding analyses. […] The microtiter wells (Costar 2690) were coated with 50 μL of each peptide at 4° C. overnight. The wells were washed 3 times with PBS and blocked with 100 μL of 1% BSA/PBS at 37° C. for 1 hour. Each antibody was adjusted to 1 μg/mL in 1% SBA/PBS as above then serially diluted 1:5 in 1% BSA/PBS. The blocker was discarded and the wells were incubated with 50 μL of antibodies at 37° C. for 1.5 hours. The wells were washed 3 times with PBS and mouse antibodies were detected with 50 μL of goat anti-mouse IgG (H+L) HRP conjugate (ThermoFisher 31438) (1:5,000 in 1% BSA/PBS) and rabbit antibodies were detected with 50 μL of goat anti-rabbit IgG (H+L) HRP conjugate (ThermoFisher 31462) (1:5,000 in 1% BSA/PBS) at 37° C. for 1 hour. The wells were washed 3 times with PBS and developed with 50 μL of HRP substrate at RT for 5 min then stopped with 50 μL of 2N sulfuric acid and binding was measured with a plate reader.

[6] = biological target: T6, oligopeptide SGPNGTAGIFATYPS (SEQ ID NO: 94); assay: ELISA on coated peptide
T6 construct: Synthetic peptide, part of Loop C of AQP3
T6 peptide: SGPNGTAGIFATYPS
Method: as §2, §3

[7] = biological target: T7, oligopeptide TYPSGHLDM (SEQ ID NO: 96); assay: ELISA on coated peptide
T7 construct: Synthetic peptide, part of Loop C of AQP3
T7 peptide: TYPSGHLDM
Method: as §2, §3

[8] = biological target: T8, oligopeptide SGHLDM (SEQ ID NO: 99); assay: ELISA on coated peptide
T8 construct: Synthetic peptide, part of Loop C of AQP3
T8 peptide: SGHLDM
Method: as §2, §3

[9] = biological target: T1, oligopeptide ATYPSGHLDM (SEQ ID NO: 1); assay: ELISA on coated peptide
Method: as §2, §3

[10] = biological target: T9, oligopeptide FATYPSGHLDM (SEQ ID NO: 109); assay: ELISA on coated peptide
T9 construct: Synthetic peptide, part of Loop C of AQP3
T9 peptide: FATYPSGHLDM
Method: as §2, §3

[11] = biological target: T10, oligopeptide IFATYPSGHLDM (SEQ ID NO: 108); assay: ELISA on coated peptide
T10 construct: Synthetic peptide, part of Loop C of AQP3
T10 peptide: IFATYPSGHLDM
Method: as §2, §3

[12] = biological target: T11, oligopeptide AGIFATYPSGHLDM (SEQ ID NO: 106); assay: ELISA on coated peptide
T11 construct: Synthetic peptide, part of Loop C of AQP3
T11 peptide: AGIFATYPSGHLDM
Method: as §2, §3

[13] = biological target: T12, oligopeptide TAGIFATYPSGHLDM (SEQ ID NO: 105); assay: ELISA on coated peptide
T12 construct: Synthetic peptide, part of Loop C of AQP3
T12 peptide: TAGIFATYPSGHLDM
Method: as §2, §3

[14] = biological target: T13, oligopeptide ATYPSG (SEQ ID NO: 104); assay: ELISA on coated peptide
T13 construct: Synthetic peptide, part of Loop C of AQP3
T13 peptide: ATYPSG
Method: as §2, §3

[15] = biological target: T14, oligopeptide ATYPSGH (SEQ ID NO: 103); assay: ELISA on coated peptide
T14 construct: Synthetic peptide, part of Loop C of AQP3
T14 peptide: ATYPSGH
Method: as §2, §3

[16] = biological target: T15, oligopeptide ATYPSGHL (SEQ ID NO: 102); assay: ELISA on coated peptide
T15 construct: Synthetic peptide, part of Loop C of AQP3
T15 peptide: ATYPSGHL
Method: as §2, §3

[17] = biological target: T16, oligopeptide GIFATYPSGHLDM (SEQ ID NO: 107); assay: ELISA on coated peptide
T16 construct: Synthetic peptide, part of Loop C of AQP3
T16 peptide: GIFATYPSGHLDM
Method: as §2, §3

[18] = biological target: T17, oligopeptide YPSGHLDM (SEQ ID NO: 97); assay: ELISA on coated peptide
T17 construct: Synthetic peptide, part of Loop C of AQP3; first diluted in DMSO
T17 peptide: YPSGHLDM
Method: as §2, §3

[19] = biological target: T18, oligopeptide GHLDM (SEQ ID NO: 100); assay: ELISA on coated peptide
T18 construct: Synthetic peptide, part of Loop C of AQP3
T18 peptide: GHLDM
Method: as §2, §3

[20] = biological target: T19, oligopeptide PSGHLDM (SEQ ID NO: 98); assay: ELISA on coated peptide
T19 construct: Synthetic peptide, part of Loop C of AQP3
T19 peptide: PSGHLDM
Method: as §2, §3

[21] = biological target: T20, oligopeptide SRGTHGGFL (SEQ ID NO: 2); assay: ELISA on peptide SEQ ID NO:2 (FIG. 16B)
T20 construct: Synthetic peptide of AQP3 Loop A; also called Loop A peptide; control peptide
T20 peptide: SRGTHGGFL

[22] = biological target: T3, mouse aquaporin 3 (AQP3) on cells; assay: fluorescence binding assay on PAM212 cells, 10 µg/mL
Method: as §1, with “PAM212” for “PAM212 and macrophage”, “at concentrations of none, 1 ng/mL, 10 ng/mL, 100 ng/mL, 1 μg/mL,” for “(0.1, 1,”, “μg/mL” for “μg/mL)”, “(at 4°” for “(4°”

[23] = biological target: T3, mouse aquaporin 3 (AQP3) on cells; assay: fluorescence binding assay on PAM212 cells with AQP3 siRNA (10% of AQP3 expression) against control siRNA, 1 µg/mL (FIG. 19)
Method: The resulting siRNA AQP3 cell line had 10% of the AQP3 expression compared to the control siRNA cell line. The siRNA AQP3 and control siRNA PAM212 cells were reacted with SC—F8, BC—H9, BC—B10, and SC—B6 at the chosen concentration 1 μg/mL at 4° C. for 1 hour. After washing the cells, a fluorescent-labeled secondary antibody was added and the reaction was allowed to occur additionally for 1 hour (at 4° C.). By measuring the fluorescence intensity, the binding property of each anti AQP3 antibody to the two cell lines was obtained.
The result of the above experiment is shown in FIG. 19, wherein the vertical axis represents fluorescence intensity, and the mean fluorescence intensity of each sample is represented by bar height together with standard error.

[24] = biological target: T2, human aquaporin 3 (AQP3) on cells; assay: fluorescence binding assay on HaCaT cells, 10 µg/mL
Method: as §1, with “HaCaT” for “PAM212 and macrophage”, “at concentrations of none, 1 ng/mL, 10 ng/mL, 100 ng/mL, 1 μg/mL,” for “(0.1, 1,”, “μg/mL” for “μg/mL)”, “(at 4°” for “(4°”

- EC50 [1]: > 1 µg/mL
- binding result [2]: binds
- binding result [3]: binds
- binding result [4]: binds
- binding signal (plate reader) [5]: 0.671
- binding signal (plate reader) [6]: 0.043
- binding signal (plate reader) [7]: 0.26
- binding signal (plate reader) [8]: 0.041
- binding signal (plate reader) [9]: 0.391
- binding signal (plate reader) [10]: 0.513
- binding signal (plate reader) [11]: 0.594
- binding signal (plate reader) [12]: 0.744
- binding signal (plate reader) [13]: 0.723
- binding signal (plate reader) [14]: 0.044
- binding signal (plate reader) [15]: 0.045
- binding signal (plate reader) [16]: 0.044
- binding signal (plate reader) [17]: 0.523
- binding signal (plate reader) [18]: 0.086
- binding signal (plate reader) [19]: 0.043
- binding signal (plate reader) [20]: 0.095
B1: Antibody J (antibody, mouse IgG2a, kappa, V domains shown)
VH: QVHLQQSGTELVKPGASVKLSCEASGYTFTSYWMHWVKQRPGQGLEWIGNINPSNGGTNYNEKFKSKATLTVDKSSSTAYMQLSSLTSEDSAVYYCARGGIYYGNYDYYAMDYWGQGTSVTVSS
VL: DIVMTQAAPSVPVTPGESVSISCRSSKSLLHSNGNTYLYWFLQRPGQSPQLLIYRVSNLASGVPDRFSGSGSGTAFTLRISRVEAEDVGVYYCMQHLEYPFTFGGGTKLEIKR
notes: also called anti AQP3 antibody J

- binding result [21]: no binding
- fold fluorescence intensity over no antibody [22]: ≥ 2 fold
- EC50 [1]: 0.01 µg/mL and ~0.06 nM
- binding signal (plate reader) [5]: 3.96
- binding signal (plate reader) [6]: 3.76
- binding signal (plate reader) [7]: 3.96
- binding signal (plate reader) [8]: 0.405
- binding signal (plate reader) [9]: 3.98
- binding signal (plate reader) [10]: 3.92
- binding signal (plate reader) [11]: 3.88
- binding signal (plate reader) [12]: 3.9
- binding signal (plate reader) [13]: 3.99
- binding signal (plate reader) [14]: 3.54
- binding signal (plate reader) [15]: 3.91
- binding signal (plate reader) [16]: 4
- binding signal (plate reader) [17]: 3.88
- binding signal (plate reader) [18]: 3.96
- binding signal (plate reader) [19]: 0.123
- binding signal (plate reader) [20]: 3.72
- fold decrease in fluorescence intensity on AQP3 siRNA cells against control siRNA cells [23]: ~2 fold
- fold fluorescence intensity over no antibody [24]: > 2 fold
B2: BC-B10 (IgG) (antibody, V domains shown)
VH: QSVEESGGRLVTPGAPLTLTCTVSRFSLSSYAMTWVRQAPGKGLEWIGIINNDVISSTWYASWVKGRFTISKTSTTMELKMTSLTTEDTATYFCARGGTSGYDIWGPGTLVTVSS
VL: AIKMTQTPSPVSAAVGGTVTINCQSSPSVYKNYLSWYQQKPGQPPKLLIYGASTLASGVPSRFKGSGSGTQFTLTISDVQCDDAATYYCAGGYIGSRDIFSFGGGTEVVVK
notes: also called anti AQP3 antibody BC-B10
